Data: the RNAGym collection of RNA variant scans (doi:10.7554/elife.90254)

B1: LINE1-full (parent)
chain: UACGUAGGUGGUUUUCCCCUGAUAGUGCUAAGGGGGCCUGGAAGUUUGGACUGGGCAGAGCUCAACACAGCGUGGCAAAGUGGCUGUGGCUAGACUGCCUCUCUGGAUUCCUCGUCACUCAGCAGGGCAUCUCUGAGAGAAAUGCC

Variants of: B1
Assay: self-cleavage, relative activity (ratio to wild type); higher = more cleavage; in vitro, sequencing; the parent is a self-cleaving ribozyme

In order of rising self-cleavage:
1. A57U U62G  0
2. G60A A94G  0
3. A59G U87G  0
4. G34U U62C  0.02
5. G60A A77G  0.03
6. U87A A138U  0.03
7. U39A U62G  0.04
8. A50G G93U  0.05
9. U47C U96G  0.05
10. A92G U132A  0.05
11. G33U U96A  0.06
12. A59G U87A  0.06
13. U45G G97A  0.07
14. G97A C111U  0.07
15. C56U A67G  0.07
16. U87A U132A  0.07
17. A42G A65C  0.07
18. A94G C95A  0.07
19. U96C U100A  0.08
20. U85A C98U  0.09
21. G88A U132C  0.09
22. A43G A57C  0.09
23. A94C U134C  0.09
24. G35A U85C  0.09
25. A2C C56U  0.11
26. G70A A136G  0.11
27. U87A A129G  0.11
28. A67G U87A  0.12
29. U45C C56U  0.12
30. C19U A57U  0.13
31. U96C U104C  0.13
32. A65U A67G  0.15
33. C3G A50U  0.16
34. A50G G54A  0.16
35. A24G G97A  0.17
36. G48U A64G  0.18
37. A65U A141G  0.18
38. A57G U102G  0.19
39. U29C A92G  0.21
40. A94G A138C  0.22
41. U45A U85C  0.24
42. A69G U115A  0.25
43. A77G C84U  0.25
44. A22U U85C  0.26
45. A64U A94U  0.26
46. A50G U96G  0.26
47. A94G C116U  0.28
48. A42G G55A  0.29
49. A30G C63A  0.3
50. U5A C110U  0.34
51. A69G U134A  0.37
52. U9A C16U  0.45
53. U91C U109A  0.48
54. C56U A117C  0.5
55. U47C C98U  0.52
56. A64U A138G  0.52
57. C3A A67G  0.56
58. U91C G114A  0.57
59. U9A A67G  0.58
60. A22G A69G  0.59
61. G54A A136G  0.62
62. A67G U132C  0.62
63. U14G U102G  0.66
64. G33A U119C  0.66
65. U13G U39C  0.7
66. A69G U132C  0.71
67. U52C A59U  0.72
68. A6U A59C  0.74
69. U108G U130A  0.77
70. A30G G44C  0.8
71. G32A G83U  0.83
72. A42U A43U  0.84
73. C3U G127A  0.89
74. U23A U134G  0.89
75. U12G G72A  0.9
76. U13G  0.93
77. A78G C111U  0.93
78. U45G A136G  0.94
79. U20C A140U  0.95
80. C3A U39A  0.96
81. U15A  0.96
82. A92U U143C  0.99
83. G11U U130C  1
84. A2U U143A  1
85. A77G C99U  1.01
86. G40A U132C  1.03
87. U14C G32U  1.03
88. U81C U100A  1.05
89. U23A U109C  1.06
90. U1C A124U  1.07
91. A30U U132C  1.07
92. A2G U52A  1.11
93. U20C C101U  1.11
94. G27C  1.11
95. U20C A24G  1.11
96. U9C U12G  1.15
97. U12C U29A  1.16
98. U52C G105A  1.17
99. A43G A107C  1.17
100. A22U U26C  1.18
101. A22G U81C  1.18
102. A107G G114A  1.18
103. C123A  1.19
104. U1A U39C  1.2
105. U29C U119A  1.21
106. G125U  1.23
107. C37G A121G  1.23
108. C37U C128A  1.23
109. U14C C18A  1.24
110. G34A G72A  1.24
111. C3U C118U  1.25
112. U23C U102A  1.28
113. U73A A121U  1.28
114. G35A U119C  1.3
115. G10A C133U  1.31
116. A77U A141C  1.32
117. G34A U130C  1.32
118. U108A U143C  1.32
119. U52A G114C  1.34
120. A43U G49A  1.34
121. U9A A31G  1.35
122. U20A A107G  1.37
123. U47A A117G  1.38
124. G33U U115A  1.38
125. U81C A142G  1.38
126. U81G A140G  1.4
127. U81C U115A  1.44
128. A77U A129G  1.45
129. U29C U119C  1.45
130. U46A A142G  1.45
131. U109C A136U  1.45
132. G34A G114A  1.47
133. U12C U109C  1.48
134. G25A A140G  1.49
135. U100G C113U  1.49
136. A6U A77G  1.51
137. C113U A117G  1.54
138. G125C  1.59
139. U112A U130C  1.6
140. U13C U130A  1.6
141. U20C A117U  1.61
142. G114C  1.63
143. U104A C120U  1.65
144. A136U A140G  1.7
145. U1A U14C  1.71
146. G48A A77G  1.73
147. A78G G126U  1.75
148. U9C C113G  1.75
149. U20C U52C  1.76
150. G33U A140G  1.83
151. G10A A78U  1.83
152. A24C U73C  1.84
153. U119C A138G  1.84
154. A31G U130G  1.84
155. U46C A78U  1.85
156. U12A A77G  1.88
157. U5A A78U  1.89
158. U115A A129G  1.9
159. U20G U115C  1.95
160. A117U U132G  1.99
161. U45C G106A  2
162. U20A U115A  2.02
163. A50C G82A  2.06
164. U115C A124C  2.09
165. A24G U104C  2.26
166. A107U A142G  2.36
167. A42G A77G  2.66
